Results from US6613875B1, “Cyclic peptide tube” (The Scripps Research Institute, priority 1993, dated 2003).
Square brackets hold non-standard residues; d marks the D form. Peptide text beside a SMILES is read from it. dNMeA = CN[C@H](C)C(=O)O

How the values were obtained:
[1] = Proton transport (collapse of pH gradient) in vesicles with entrapped 5(6)-carboxyfluorescein; format: biochemical; settings: vesicles pH 6.5 inside, pH 5.5 outside; 25° C.; equal molar amounts of channel forming compounds
Source text: The proton efflux is expressed in terms of the fractional change in the fluorescence intensity of vesicle entrapped 5(6)-carboxyfluorescein as a function of time (sampling time was at 0.3 seconds interval). Equal molar amounts of channel forming compounds were used in each experiment to allow direct comparisons of channel-mediated proton transport activity. The amount of added channel forming compounds in each experiment ranged from of 2 to 20 nmoles corresponding to approximately 150 channels per liposome for the lowest concentrations to 1100 channels per liposome for the highest amount of added compounds.
Formation of transmembrane channels was also inferred from its highly efficient proton transport activity. Vesicles were prepared having pH 6.5 inside and pH 5.5 in the outside bulk solution. The collapse of the imposed pH gradient in these vesicles, upon formation of the putative transmembrane channel structure, was studied by monitoring the fluorescence intensity of an entrapped pH-sensitive dye. (V.E. Carmichael et al, in J.Am. Chem. Soc. (1989), vol. 111, pages 767-769). […] Unilamellar vesicles were prepared by the reverse-phase evaporation using DPPC, OPPC, cholestrol in the ratio of 1:1:2 in a solution containing 5(6)-carboxyfluorescein (20 mM in phosphate/saline buffer: 137 mM NaCl, 2.6 mM KCl, 6.4 mM Na2HPO4, 1.4 mM KH2PO4, pH 6.5) according to the method of F. Szoka et al. in Proc. Natl. Acad. Sci. USA (1978), vol. 75, pages 4194-4198. […] Vesicles formed in this way are approximately 150 nanometer in diameter as determined by electron microscopy. […] To the cuvett, through an injector port, […] of the channel forming compounds in DMSO was added with continuous fluorescence monitoring at 520 nm (excitation at 470 nm). The observed data were then normalized for comparison into the fractional change in fluorescence ((I0−It)/(I0−I∞)) (V. E. Carmichael et al, in J.Am. Chem. Soc. (1989), vol. 111, pages 767-769)). […]

[2] = Dimerization (self-assembly) of N-methylated cyclic peptide in nonpolar solvents, 1H NMR / van't Hoff; format: physicochemical
Source text: Variable temperature NMR experiments in DMSO indicate cis-trans conformational activation barriers on the order of 16 to 17 kcal.mol^−1. However, in nonpolar solvents such as carbon tetrachloride (CCl4) or deuterochloroform (CDCl3) the peptide exists in an all trans flat-ring-shaped backbone conformation which is in dynamic equilibrium with the expected dimeric cylindrical ensemble. […] The preponderance of a flat ring-shaped backbone conformation is also indicated by the observed 7.5 Hz JNH-CaH coupling constant. Intermolecular hydrogen bonding interactions producing the stacked dimeric ensemble are signified by the expected downfield shift of the phenylalanine N—H backbone resonance from 6.98 to 8.73 ppm (JNH-CaH=8.5 Hz) and are unequivocally established by the observed exchange and NOE cross peaks in its ROESY spectrum.
Formation of a tight hydrogen bonded ensemble with an average intersubunit N—O distance of 2.95 Å is also evidenced by the appearance of an N—H stretching band in the infrared spectrum at 3309 cm^−1.
[…] […] The Ka(CCl4) reported was performed in a mixture of 84% CCl4 and 16% CDCl3 for solubility reasons.
Variable temperature studies (van't Hoff plots) establish the following thermodynamic parameters for the dimerization process in chloroform: ΔCp=−203.1 cal.K^−1.mol^−1, ΔH^0298=−11.0 kcal.mol^−1, and ΔS^0298=−23.7 e.u. which clearly supports the expected enthalpic contribution of intermolecular hydrogen bonding interactions (0.5 to 0.7 kcal.mol^−1 for each hydrogen bonding interaction) as the major driving force in the self-assembly process.
The above experiments indicate that the peptide subunit adopts a flat ring-shaped solution conformation which is energetically favored toward ring stacking and intermolecular hydrogen bonding interactions by 4.0 to 5.6 kcal.mol^−1, depending on the solvent employed. It follows then that an additive gain in free energy of stabilization is to be expected as the number of ring-stacking interactions are increased. This is particularly relevant to the self-assembled nanotubes and to the transmembrane ion channel structures that can be produced.

[3] = Incorporation of peptide subunit into lipid bilayers of large unilamellar vesicles (absorption and fluorescence spectroscopy); format: physicochemical; settings: aqueous liposomal suspensions
Source text: Incorporation of the peptide subunit into lipid bilayers using large unilamellar vesicles has been established by absorption and fluorescence spectroscopy. Formation of the hydrogen-bonded transmembrane channel structure in phosphatidylcholin liposomes has been supported by FT-IR spectroscopy (FIG. 24). The observed amide-I band at 1624 cm^−1 is not only similar to the carbonyl stretching frequencies found in other nanotube structures disclosed herein, but is also consistent with the infrared spectrum of gramicidin A in similar lipid bilayers. (E. Nabedryk et al in Biophys. J. (1982), vol. 38, pages 243-249. Furthermore, the observed N-H stretching frequency at 3272 cm^−1 strongly supports the formation of a tight network of hydrogen bonds with an average intersubunit distance of 4.7 Å.
The second control peptide cyclo[-(^MeN-D-Ala-Phe)4-] which has the desirable hydrophobic surface characteristics but lacks the propensity for participating in extended hydrogen bonding network, was also designed and tested for ion transport activity. The peptide design incorporates a novel N-methylation strategy on one face of the ring structure which predisposes the subunit toward a dimeric cylindrical structure (Ghadiri, M. R., Kobayashi, K., Granja, J. R., Chadha, R., and McRee, D. E. manuscript in preparation). Such a dimeric cylindrical ensemble is approximately 10 Å thick and can not span the lipid bilayer.
The ten-residue peptide subunit employed in the present study, cyclo[-Gln-(D-Leu-Trp)4-D-Leu-], is made up of largely tryptophan and leucine residues to favor its partitioning into and self-assembly in lipid bilayers. It was synthesized on solid support^5 and characterized by ^1H NMR spectroscopy and mass spectrometry. […] This has been supported by absorption and fluorescence spectrophotometry and gel permeation studies. Formation of a hydrogen bonded transmembrane channel structure in phosphatidylcholin liposomes has been established by FT-IR spectroscopy^6. […]

[4] = pH dependent solubility of peptide subunit in aqueous media; format: physicochemical
Source text: FIG. 17 illustrates the hydrogen bonding of molecular tubes constructed with cyclic peptide 1.
The design, synthesis, and characterization of a molecular tube, i.e., a cyclic peptide tube or “organic nanotube,” is described. A rationally designed 24-membered ring peptide structure can be constructed and shown to undergo a proton-triggered self-assembly to produce tubular structures hundreds of nanometers long, with internal van der Waals diameter of 7 to 8 Å. Formation of tubular structures is established by Electron Microscopy (EM), electron diffraction studies, and Fourier Transformed Infrared Spectroscopy (FT-IR). A three-dimensional model of the molecular tube consistent with the experimental observations is also presented. As opposed to the recently identified closed concentric graphite tubes, cyclic peptide tubes, by virtue of the cyclic nature of their components, are open ended structures and have uniform shape and internal diameter, e.g., Tsang, S. C. et al. (1993), Nature 362, 520-522 and Ajayan, P. M. et al. (1993), Nature 362, 522-525 (1993). The proton-triggered self-assembly process described herein is a highly convergent approach in which numerous ring-shaped peptide subunits interact through an extensive network of hydrogen bonds to form molecular tube structures. Example I features an eight-residue cyclic peptide with the following sequence: cyclo[-(D-Ala-Glu-D-Ala-Gln)2-]. (Sequence No.: 1) In designing the subunit, it is shown that cyclic peptides with an even number of alternating D- and L-amino acids can adopt or sample a low energy ring-shaped flat conformation in which all backbone amide functionalities lie approximately perpendicular to the plane of the structure. In this conformation, subunits can stack in an anti-parallel fashion and participate in backbone-backbone intermolecular hydrogen bonding to furnish a contiguous β-sheet structure. Moreover, because of the alternating D- and L-amino acid sequence, peptide side chains must \necessarily lie on the exterior of the ensemble thereby creating the desired hollow tubular core structure. […]

Compound | apparent ion (proton) transport activity [1] | association constant Ka(CCl4) of dimerization ([2]; 293 K, mixture of 84% CCl4 and 16% CDCl3, lower limit (included water)) | ΔCp of dimerization ([2]; chloroform, van't Hoff plots) | ΔH^0298 of dimerization ([2]; chloroform, van't Hoff plots) | ΔS^0298 of dimerization ([2]; chloroform, van't Hoff plots) | association constant Ka(CDCl3) of dimerization ([2]; water rigorously excluded (4 Å molecular sieves)) | partitioning / incorporation into lipid bilayers [3] | solubility in aqueous media ([4]; acidic / low pH) | solubility in aqueous media ([4]; acidic / low pH, listed as cyclo[-(D-Ala-Glu-D-Ala-Gln)2-]) | solubility in aqueous media ([4]; high (alkaline) pH)
cyclo[-(L-Phe-D-^Me NAla)4-] (cyclo(F[dNMeA]F[dNMeA]F[dNMeA]F[dNMeA]); SMILES C[C@@H]1C(=O)N[C@@H](Cc2ccccc2)C(=O)N(C)[C@H](C)C(=O)N[C@@H](Cc2ccccc2)C(=O)N(C)[C@H](C)C(=O)N[C@@H](Cc2ccccc2)C(=O)N(C)[C@H](C)C(=O)N[C@@H](Cc2ccccc2)C(=O)N1C) [N-methylated cap subunit / second control peptide, forms dimeric cylindrical structure] | does not promote proton transport activity | 14000 M⁻¹ | −203.1 cal.K^−1.mol^−1 | -11.0 kcal/mol | −23.7 e.u. | 2540 M⁻¹ | partition effectively | – | – | –
cyclo[-(Gln-D-Leu)4-] (cyclo(Q[dL]Q[dL]Q[dL]Q[dL]); SMILES CC(C)C[C@H]1NC(=O)[C@H](CCC(N)=O)NC(=O)[C@@H](CC(C)C)NC(=O)[C@H](CCC(N)=O)NC(=O)[C@@H](CC(C)C)NC(=O)[C@H](CCC(N)=O)NC(=O)[C@@H](CC(C)C)NC(=O)[C@H](CCC(N)=O)NC1=O) [cyclo[-(Gln-D-Leu)4], control peptide lacking surface characteristics for partitioning into lipid bilayers] | does not display any ion transport activity | – | – | – | – | – | – | – | – | –
C[C@H]1NC(=O)[C@H](CCC(N)=O)NC(=O)[C@@H](C)NC(=O)[C@H](CCC(=O)O)NC(=O)[C@@H](C)NC(=O)[C@H](CCC(N)=O)NC(=O)[C@@H](C)NC(=O)[C@H](CCC(=O)O)NC1=O [cyclic peptide 1, cyclo[-(Gln-D-Ala-Glu-D-Ala)2-]] (cyclo(Q[dA]E[dA]Q[dA]E[dA])) | – | – | – | – | – | – | – | lower water solubility | lower solubility | high water solubility
